Like-named read-outs stand apart in the source and are kept apart here.
What was measured:
[1] = biological target: human pancreatic α-amylase (human) (UniProt P04746); experiment: enzyme inhibition kinetics
[2] = biological target: porcine pancreatic α-amylase (porcine) (UniProt P00690); experiment: enzyme inhibition kinetics
HPA = conditions: read-out: Ki against HPA, cited from earlier work
[3] = cited from earlier work
[4] = cited from earlier work; remark: listed apart in the source

Chain of UniProt P00690 (P00690 16-511): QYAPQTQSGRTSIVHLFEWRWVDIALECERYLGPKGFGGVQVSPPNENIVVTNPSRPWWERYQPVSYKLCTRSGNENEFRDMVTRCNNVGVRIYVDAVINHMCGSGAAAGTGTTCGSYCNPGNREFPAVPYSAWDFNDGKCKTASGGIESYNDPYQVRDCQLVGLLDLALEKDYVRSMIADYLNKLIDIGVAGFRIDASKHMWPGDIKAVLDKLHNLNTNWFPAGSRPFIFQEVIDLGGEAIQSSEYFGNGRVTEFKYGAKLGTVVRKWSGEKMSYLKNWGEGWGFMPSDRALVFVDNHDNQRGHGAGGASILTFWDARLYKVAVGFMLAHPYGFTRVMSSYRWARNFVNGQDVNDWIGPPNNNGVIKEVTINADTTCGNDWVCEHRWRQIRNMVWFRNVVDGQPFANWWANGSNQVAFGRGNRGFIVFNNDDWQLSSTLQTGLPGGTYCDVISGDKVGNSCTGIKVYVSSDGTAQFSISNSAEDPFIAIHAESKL
Chain of UniProt P04746 (P04746 16-511): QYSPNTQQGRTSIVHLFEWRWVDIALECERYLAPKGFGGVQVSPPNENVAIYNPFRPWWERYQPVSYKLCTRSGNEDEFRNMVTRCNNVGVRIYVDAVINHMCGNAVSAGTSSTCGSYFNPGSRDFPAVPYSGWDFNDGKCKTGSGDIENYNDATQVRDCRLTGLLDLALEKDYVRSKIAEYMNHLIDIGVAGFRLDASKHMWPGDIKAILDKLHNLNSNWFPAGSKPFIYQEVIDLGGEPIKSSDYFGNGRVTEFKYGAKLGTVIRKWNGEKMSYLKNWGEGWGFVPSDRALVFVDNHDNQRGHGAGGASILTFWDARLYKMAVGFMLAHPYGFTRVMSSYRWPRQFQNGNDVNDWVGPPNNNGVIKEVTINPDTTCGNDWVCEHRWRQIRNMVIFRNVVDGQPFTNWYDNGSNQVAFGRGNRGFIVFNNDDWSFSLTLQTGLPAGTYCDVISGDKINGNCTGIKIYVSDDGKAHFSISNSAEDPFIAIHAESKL

recombinant helianthamide (peptide) showed a Ki [1] of 0.01 nM and a Ki [2] of 0.1 nM.

In the case of Montbretin A [reference compound], the Ki (HPA) is listed as 8 nM.

B1: tendamistat: 74-residue peptide with two disulfide bonds from Streptomyces tendae (protein, UniProt P01092 31-104, looked up)
Alpha-amylase inhibitor …: DTTVSEPAPSCVTLYQSWRYSQADNGCAQTVTVKVVYEDDTEGLCYAVAPGQITTVGDGYIGSHGHARYLARCL
For B1, the Ki (HPA; estimated) is listed as 0.009 to 0.2 nM, the vulnerability to degradation [3] is listed as “vulnerability to degradation” and the immunogenicity ([4]; clinic) is listed as “pronounced immunogenicity”. The “blood plasma glucose levels” value ([4]; clinical trials) was “significant decrease in blood plasma glucose levels”.
